Results taken from paper PMC12331092 (2025).
Square brackets hold non-standard residues; d marks the D form. Ends that are not written are not given here. pT = C[C@@H](OP(=O)(O)O)[C@H](N)C(=O)O; pS = N[C@@H](COP(=O)(O)O)C(=O)O

Key:
[1] = molecular target: T1, Rattus norvegicus wild-type β-arrestin2 (Rattus norvegicus, UniProt P29067 1-410); assay: ITC; site I (KD1)
[2] = molecular target: T1, Rattus norvegicus wild-type β-arrestin2; assay: ITC; site II (KD2)

T1 sequence (P29067 whole entry): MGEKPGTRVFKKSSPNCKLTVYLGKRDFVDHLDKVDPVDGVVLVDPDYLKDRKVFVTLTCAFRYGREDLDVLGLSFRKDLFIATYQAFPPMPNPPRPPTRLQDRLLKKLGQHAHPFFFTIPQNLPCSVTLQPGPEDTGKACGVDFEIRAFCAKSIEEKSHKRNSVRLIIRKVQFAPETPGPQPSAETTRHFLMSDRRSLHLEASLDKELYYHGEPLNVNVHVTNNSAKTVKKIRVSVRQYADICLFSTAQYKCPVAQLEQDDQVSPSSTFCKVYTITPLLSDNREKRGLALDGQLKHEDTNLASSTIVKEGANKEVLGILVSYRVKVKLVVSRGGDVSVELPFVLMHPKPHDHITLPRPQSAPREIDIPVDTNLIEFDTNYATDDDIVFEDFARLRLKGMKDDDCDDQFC

## ASRV[pS]E[pT]EY[pS]ALEQ [C7pp2, phosphopeptide from the carboxyl terminus of CXCR7 (residues 346-359)]
[1]
  Kd: 79.9 nM
[2]
  Kd: 3320 nM
